This is an account of results in the supplement of paper PMC5998384.

The subject of series [1] is HeLa Kyoto. Nature of the series: solubility in G1/S (NP-40 vs SDS abundance) (log2 ratio); higher = more soluble. The note with it: cell cycle stage: G1/S.
Series [2] concerns HeLa Kyoto. Put plainly: solubility change mitosis vs G1/S (difference of NP-40 vs SDS log2 ratios) (log2 ratio difference); higher = more soluble in mitosis.
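For solubility change mitosis vs G1/S (difference of NP-40 vs SDS log2 ratios) in this document: synchronized HeLa Kyoto cells (double thymidine block for G1/S, nocodazole release for mitosis), protein amounts in NP-40 versus SDS lysates quantified by mass spectrometry, three biological replicates.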
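For solubility in G1/S (NP-40 vs SDS abundance) in this document: HeLa Kyoto cells arrested at G1/S by double thymidine block, proteins quantified by TMT10plex mass spectrometry in mild NP-40 versus SDS extracts, three biological replicates.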

On to “MEKRLQEAQLYKEEGNQRYREGKYRDAVSRYHRALLQLRGLDPSLPSPLPNLGPQGPALTPEQENILHTTQTDCYNNLAACLLQMEPVNYERVREYSQKVLERQPDNAKALYRAGVAFFHLQDYDQARHYLLAAVNRQPKDANVRRYLQLTQSELSSYHRKEKQLYLGMFG [TTC9C]”, for which the “solubility in G1/S (log2)” value in series [1] came to 0.247. In series [2], the “solubility change mitosis (log2)” value was found to be 0.459.

In the case of “MEKSWMLWNFVERWLIALASWSWALCRISLLPLIVTFHLYGGIILLLLIFISIAGILYKFQDVLLYFPEQPSSSRLYVPMPTGIPHENIFIRTKDGIRLNLILIRYTGDNSPYSPTIIYFHGNAGNIGHRLPNALLMLVNLKVNLLLVDYRGYGKSEGEASEEGLYLDSEAVLDYVMTRPDLDKTKIFLFGRSLGGAVAIHLASENSHRISAIMVENTFLSIPHMASTLFSFFPMRYLPLWCYKNKFLSYRKISQCRMPSLFISGLSDQLIPPVMMKQLYELSPSRTKRLAIFPDGTHNDTWQCQGYFTALEQFIKEVVKSHSPEEMAKTSSNVTII [ABHD13]”, the “solubility in G1/S (log2)” value in series [1] is -0.091. In addition, the “solubility change mitosis (log2)” value in series [2] is -0.176.

Take “MELPAVNLKVILLGHWLLTTWGCIVFSGSYAWANFTILALGVWAVAQRDSIDAISMFLGGLLATIFLDIVHISIFYPRVSLTDTGRFGVGMAILSLLLKPLSCCFVYHMYRERGGELLVHTGFLGSSQDRSAYQTIDSAEAPADPFAVPEGRSQDARGY [AGTRAP]”: in series [1], the “solubility in G1/S (log2)” value amounted to 0.0387. The “solubility change mitosis (log2)” value in series [2] was -0.217.

For “MENCSAASTFLTDSLELELGTEWCKPPYFSCAVDNRGGGKHFSGESYLCSGALKRLILNLDPLPTNFEEDTLEIFGIQWVTETALVNSSRELFHLFRQQLYNLETLLQSSCDFGKVSTLHCKADNIRQQCVLFLHYVKVFIFRYLKVQNAESHVPVHPYEALEAQLPSVLIDELHGLLLYIGHLSELPSVNIGAFVNQNQIKLFPPSWHLLHLHLDIHWLVLEILYMLGEKLKQVVYGHQFMNLASDNLTNISLFEEHCETLLCDLISLSLNRYDKVRSSESLMSDQCPCLCIKELWVLLIHLLDHRSKWFVSESFWNWLNKLLKTLLEKSSDRRRSSMPVIQSRDPLGFSWWIITHVASFYKFDRHGVPDEMRKVESNWNFVEELLKKSISVQGVILEEQLRMYLHCCLTLCDFWEPNIAIVTILWEYYSKNLNSSFSISWLPFKGLANTMKSPLSMLEMVKTCCCDKQDQELYKSSSSYTIFLCILAKVVKKAMKSNGPHPWKQVKGRIYSKFHQKRMEELTEVGLQNFFSLFLLLAAVAEVEDVASHVLDLLNFLKPAFVTSQRALIWKGHMAFLLMYAQKNLDIGVLAEKFSCAFREKAKEFLVSKNEEMVQRQTIWTLLSIYIDGVQEVFETSYCLYPSHEKLLNDGFSMLLRACRESELRTVLSFLQAVLARIRSMHQQLCQELQRDNVDLFVQSSLSAKERHLAAVASALWRHFFSFLKSQRMSQVVPFSQLADAAADFTLLAMDMPSTAPSDFQPQPVISIIQLFGWDDIICPQVVARYLSHVLQNSTLCEALSHSGYVSFQALTVRSWIRCVLQMYIKNLSGPDDLLIDKNLEEAVEKEYMKQLVKLTRLLFNLSEVKSIFSKAQVEYLSISEDPKKALVRFFEAVGVTYGNVQTLSDKSAMVTKSLEYLGEVLKYIKPYLGKKVFSAGLQLTYGMMGILVKSWAQIFATSKAQKLLFRIIDCLLLPHAVLQQEKELPAPMLSAIQKSLPLYLQGMCIVCCQSQNPNAYLNQLLGNVIEQYIGRFLPASPYVSDLGQHPVLLALRNTATIPPISSLKKCIVQVIRKSYLEYKGSSPPPRLASILAFILQLFKETNTDIYEVELLLPGILKCLVLVSEPQVKRLATENLQYMVKACQVGSEEEPSSQLTSVFRQFIQDYGMRYYYQVYSILETVATLDQQVVIHLISTLTQSLKDSEQKWGLGRNIAQREAYSKLLSHLGQMGQDEMQRLENDNT [MMS22L]”, the “solubility in G1/S (log2)” value in series [1] is -0.523. In addition, the “solubility change mitosis (log2)” value in series [2] was -0.109.

For “MEPKVAELKQKIEDTLCPFGFEVYPFQVAWYNELLPPAFHLPLPGPTLAFLVLSTPAMFDRALKPFLQSCHLRMLTDPVDQCVAYHLGRVRESLPELQIEIIADYEVHPNRRPKILAQTAAHVAGAAYYYQRQDVEADPWGNQRISGVCIHPRFGGWFAIRGVVLLPGIEVPDLPPRKPHDCVPTRADRIALLEGFNFHWRDWTYRDAVTPQERYSEEQKAYFSTPPAQRLALLGLAQPSEKPSSPSPDLPFTTPAPKKPGNPSRARSWLSPRVSPPASPGP [MMACHC]”, in series [1], the “solubility in G1/S (log2)” value was found to be 0.0435. For the same sequence, the “solubility change mitosis (log2)” value in series [2] turned out to be 0.0886.

Take “METAPKPGKDVPPKKDKLQTKRKKPRRYWEEETVPTTAGASPGPPRNKKNRELRPQRPKNAYILKKSRISKKPQVPKKPREWKNPESQRGLSGTQDPFPGPAPVPVEVVQKFCRIDKSRKLPHSKAKTRSRLEVAEAEEEETSIKAARSELLLAEEPGFLEGEDGEDTAKICQADIVEAVDIASAAKHFDLNLRQFGPYRLNYSRTGRHLAFGGRRGHVAALDWVTKKLMCEINVMEAVRDIRFLHSEALLAVAQNRWLHIYDNQGIELHCIRRCDRVTRLEFLPFHFLLATASETGFLTYLDVSVGKIVAALNARAGRLDVMSQNPYNAVIHLGHSNGTVSLWSPAMKEPLAKILCHRGGVRAVAVDSTGTYMATSGLDHQLKIFDLRGTYQPLSTRTLPHGAGHLAFSQRGLLVAGMGDVVNIWAGQGKASPPSLEQPYLTHRLSGPVHGLQFCPFEDVLGVGHTGGITSMLVPGAGEPNFDGLESNPYRSRKQRQEWEVKALLEKVPAELICLDPRALAEVDVISLEQGKKEQIERLGYDPQAKAPFQPKPKQKGRSSTASLVKRKRKVMDEEHRDKVRQSLQQQHHKEAKAKPTGARPSALDRFVR [WDR46]”: in series [1], the “solubility in G1/S (log2)” value was -1.25. The “solubility change mitosis (log2)” value in series [2] stood at 0.592.

With “MFHSPRRLCSALLQRDAPGLRRLPAPGLRRPLSPPAAVPRPASPRLLAAASAASGAARSCSRTVCSMGTGTSRLYSALAKTLNSSAASQHPEYLVSPDPEHLEPIDPKELLEECRAVLHTRPPRFQRDFVDLRTDCPSTHPPIRVMQWNILAQALGEGKDNFVQCPVEALKWEERKCLILEEILAYQPDILCLQEVDHYFDTFQPLLSRLGYQGTFFPKPWSPCLDVEHNNGPDGCALFFLQNRFKLVNSANIRLTAMTLKTNQVAIAQTLECKESGRQFCIAVTHLKARTGWERFRSAQGCDLLQNLQNITQGAKIPLIVCGDFNAEPTEEVYKHFASSSLNLNSAYKLLSADGQSEPPYTTWKIRTSGECRHTLDYIWYSKHALNVRSALDLLTEEQIGPNRLPSFNYPSDHLSLVCDFSFTEESDGLS [NOCT]”, in series [1], the “solubility in G1/S (log2)” value was 0.0632. Also, in series [2], the “solubility change mitosis (log2)” value is -0.0975.

For the sequence “MFLQYYLNEQGDRVYTLKKFDPMGQQTCSAHPARFSPDDKYSRHRITIKKRFKVLMTQQPRPVL [NOP10]”, the “solubility in G1/S (log2)” value in series [1] was -1.06. In series [2], the “solubility change mitosis (log2)” value stood at 0.778.

As for “MFPVFPCTLLAPPFPVLGLDSRGVGGLMNSFPPPQGHAQNPLQVGAELQSRFFASQGCAQSPFQAAPAPPPTPQAPAAEPLQVDLLPVLAAAQESAAAAAAAAAAAAAVAAAPPAPAAASTVDTAALKQPPAPPPPPPPVSAPAAEAAPPASAATIAAAAATAVVAPTSTVAVAPVASALEKKTKSKGPYICALCAKEFKNGYNLRRHEAIHTGAKAGRVPSGAMKMPTMVPLSLLSVPQLSGAGGGGGEAGAGGGAAAVAAGGVVTTTASGKRIRKNHACEMCGKAFRDVYHLNRHKLSHSDEKPYQCPVCQQRFKRKDRMSYHVRSHDGAVHKPYNCSHCGKSFSRPDHLNSHVRQVHSTERPFKCEKCEAAFATKDRLRAHTVRHEEKVPCHVCGKMLSSAYISDHMKVHSQGPHHVCELCNKGTGEVCPMAAAAAAAAAAAAAAVAAPPTAVGSLSGAEGVPVSSQPLPSQPW [MAZ]”, the “solubility in G1/S (log2)” value in series [1] amounted to 0.0657. Moreover, in series [2], the “solubility change mitosis (log2)” value worked out at 0.19.

For “MFQASMRSPNMEPFKQQKVEDFYDIGEELGSGQFAIVKKCREKSTGLEYAAKFIKKRQSRASRRGVSREEIEREVSILRQVLHHNVITLHDVYENRTDVVLILELVSGGELFDFLAQKESLSEEEATSFIKQILDGVNYLHTKKIAHFDLKPENIMLLDKNIPIPHIKLIDFGLAHEIEDGVEFKNIFGTPEFVAPEIVNYEPLGLEADMWSIGVITYILLSGASPFLGDTKQETLANITAVSYDFDEEFFSQTSELAKDFIRKLLVKETRKRLTIQEALRHPWITPVDNQQAMVRRESVVNLENFRKQYVRRRWKLSFSIVSLCNHLTRSLMKKVHLRPDEDLRNCESDTEEDIARRKALHPRRRSSTS [DAPK2]”, in series [1], the “solubility in G1/S (log2)” value is 0.203. The “solubility change mitosis (log2)” value in series [2] was -0.115.
